Results on 7 molecules are retold here after US20040024178A1, “Bacterial signal peptidase inhibitors and uses thereof” (priority 1999, published 2004).

The target of series [1] is T1, S. aureus SpsB signal peptidase (Staphylococcus aureus) (UniProt P0A070).
T1 sequence: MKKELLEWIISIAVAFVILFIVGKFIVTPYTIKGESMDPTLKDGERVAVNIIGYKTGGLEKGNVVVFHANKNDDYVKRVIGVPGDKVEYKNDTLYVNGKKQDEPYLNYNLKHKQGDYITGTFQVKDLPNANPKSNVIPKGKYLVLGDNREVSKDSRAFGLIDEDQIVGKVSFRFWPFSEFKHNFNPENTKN
The experiment in a line: cell-based or functional assay.

The target of series [2] is T2, Decanoyl-Lys(Flu)-Thr-Pro-Thr-Ala-Lys-Ala-Ala-Ser-Lys-Lys(TAMRA)-Asp-Asp-OH, prep-hplc peak 23C.
T2 chain: KTPTAKAASKKDD

Series [3] concerns the target T3, Decanoyl-Lys(Flu)-Thr-Pro-Thr-Ala-Lys-Ala-Ala-Ser-Lys-Lys(Bio-X)-Asp-Asp-OH.
T3 chain: KTPTAKAASKKDD

The target of series [4] is T4, Decanoyl-Lys(TAMRA)-Thr-Pro-Thr-Ala-Lys-Ala-Ala-Ser-Lys-Lys(Flu)-Asp-Asp-OH, prep-hplc peak 24C.
T4 chain: KTPTAKAASKKDD

For series [5], the target named is T5, Decanoyl-Lys(TAMRA)-Thr-Pro-Thr-Ala-Lys-Ala-Ala-Ser-Lys-Lys(Flu)-Asp-Asp-OH, prep-hplc peak 24D.
T5 chain: KTPTAKAASKKDD

Series [6] deals with T6, Decanoyl-Lys(Bio-X)-Thr-Pro-Thr-Ala-Lys-Ala-Ala-Ser-Lys-Ile-Asp-Asp-Gly-Lys(Flu)-Asp-OH.
T6 chain: KTPTAKAASKIDDGKD

Series [7] deals with T7, Decanoyl-Leu-Thr-Pro-Lys(Bio-X)-Ala-Lys-Ala-Ala-Ser-Lys-Lys(Flu)-Asp-Asp-OH.
T7 chain: LTPKAKAASKKDD

Series [8] concerns the target T8, Decanoyl-Leu-Thr-Pro-Lys(Bio-X)-Ala-Lys-Ala-Ala-Ser-Lys-Ile-Asp-Asp-Gly-Lys(Flu)-Asp-OH.
T8 chain: LTPKAKAASKIDDGKD

A value given as a limit tells only on which side of the number the result lay.

The molecule “Decanoyl-Lys(TAMRA)-Thr-Pro-Thr-Ala-Lys-Ala-Ala-Ser-Lys-Lys(Flu)-Asp-Asp-OH, prep-hplc peak 24D (peptide)” came in with a signal change (fluorescence quench assay) in series [1] of more than 10 fold.
Still for that read-out and setting: the figure for “Decanoyl-Lys(TAMRA)-Thr-Pro-Thr-Ala-Lys-Ala-Ala-Ser-Lys-Lys(Flu)-Asp-Asp-OH, prep-hplc peak 24C (peptide)” is more than 10 fold.
Take “Decanoyl-Lys(Flu)-Thr-Pro-Thr-Ala-Lys-Ala-Ala-Ser-Lys-Lys(Bio-X)-Asp-Asp-OH (peptide)”: in series [1], the signal change (fluorescence polarisation assay, developed with avidin) is more than 150 mP.
On the same count and under the same terms, the result for “Decanoyl-Lys(Bio-X)-Thr-Pro-Thr-Ala-Lys-Ala-Ala-Ser-Lys-Ile-Asp-Asp-Gly-Lys(Flu)-Asp-OH (peptide)” reads more than 150 mP; that for “Decanoyl-Leu-Thr-Pro-Lys(Bio-X)-Ala-Lys-Ala-Ala-Ser-Lys-Ile-Asp-Asp-Gly-Lys(Flu)-Asp-OH (peptide)”, more than 150 mP; that for “Decanoyl-Leu-Thr-Pro-Lys(Bio-X)-Ala-Lys-Ala-Ala-Ser-Lys-Lys(Flu)-Asp-Asp-OH (peptide)”, more than 150 mP.

B1: S. aureus SpsB signal peptidase (protein)
chain: T1 sequence
For the molecule B1, the “catalytic efficiency kcat/Km (fluorescence quench assay)” value in series [2], in series [4] and in series [5] was “kcat/Km >/=5000 M^-1 sec^-1” throughout. The “catalytic efficiency kcat/Km (fluorescence polarisation assay)” value in series [3], in series [6], in series [7] and in series [8] was “kcat/Km >/=8000 M^-1 sec^-1” each time. The “kcat/Km (fluorescence correlation spectroscopy assay)” value in series [7] is reported as “kcat/Km=6800 M^-1s^-1”.
